Paper PMC6003625 (Journal of molecular biology, 2018)

Target: Nup159-Dbp5-Mg2+mantADP complex (S. cerevisiae | , UniProt P20449 1-482; P40477 1-1460)
Test: stopped-flow kinetics of mantADP dissociation

Chain of Nup159-Dbp5-Mg2+mantADP complex (P20449 whole entry, chain 1 of 2): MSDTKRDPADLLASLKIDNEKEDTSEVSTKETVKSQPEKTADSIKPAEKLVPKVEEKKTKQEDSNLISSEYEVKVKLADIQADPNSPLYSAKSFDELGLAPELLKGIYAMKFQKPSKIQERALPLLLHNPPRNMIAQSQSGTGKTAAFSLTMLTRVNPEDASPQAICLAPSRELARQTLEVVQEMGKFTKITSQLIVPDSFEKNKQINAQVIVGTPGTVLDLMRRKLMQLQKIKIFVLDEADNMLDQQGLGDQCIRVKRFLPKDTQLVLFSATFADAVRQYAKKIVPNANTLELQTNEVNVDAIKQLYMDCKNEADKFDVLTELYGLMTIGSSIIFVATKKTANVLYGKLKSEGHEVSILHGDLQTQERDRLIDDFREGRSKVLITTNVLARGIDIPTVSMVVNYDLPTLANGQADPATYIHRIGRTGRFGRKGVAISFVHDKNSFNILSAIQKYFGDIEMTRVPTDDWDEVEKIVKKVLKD
Chain of Nup159-Dbp5-Mg2+mantADP complex (P40477 whole entry, chain 2 of 2): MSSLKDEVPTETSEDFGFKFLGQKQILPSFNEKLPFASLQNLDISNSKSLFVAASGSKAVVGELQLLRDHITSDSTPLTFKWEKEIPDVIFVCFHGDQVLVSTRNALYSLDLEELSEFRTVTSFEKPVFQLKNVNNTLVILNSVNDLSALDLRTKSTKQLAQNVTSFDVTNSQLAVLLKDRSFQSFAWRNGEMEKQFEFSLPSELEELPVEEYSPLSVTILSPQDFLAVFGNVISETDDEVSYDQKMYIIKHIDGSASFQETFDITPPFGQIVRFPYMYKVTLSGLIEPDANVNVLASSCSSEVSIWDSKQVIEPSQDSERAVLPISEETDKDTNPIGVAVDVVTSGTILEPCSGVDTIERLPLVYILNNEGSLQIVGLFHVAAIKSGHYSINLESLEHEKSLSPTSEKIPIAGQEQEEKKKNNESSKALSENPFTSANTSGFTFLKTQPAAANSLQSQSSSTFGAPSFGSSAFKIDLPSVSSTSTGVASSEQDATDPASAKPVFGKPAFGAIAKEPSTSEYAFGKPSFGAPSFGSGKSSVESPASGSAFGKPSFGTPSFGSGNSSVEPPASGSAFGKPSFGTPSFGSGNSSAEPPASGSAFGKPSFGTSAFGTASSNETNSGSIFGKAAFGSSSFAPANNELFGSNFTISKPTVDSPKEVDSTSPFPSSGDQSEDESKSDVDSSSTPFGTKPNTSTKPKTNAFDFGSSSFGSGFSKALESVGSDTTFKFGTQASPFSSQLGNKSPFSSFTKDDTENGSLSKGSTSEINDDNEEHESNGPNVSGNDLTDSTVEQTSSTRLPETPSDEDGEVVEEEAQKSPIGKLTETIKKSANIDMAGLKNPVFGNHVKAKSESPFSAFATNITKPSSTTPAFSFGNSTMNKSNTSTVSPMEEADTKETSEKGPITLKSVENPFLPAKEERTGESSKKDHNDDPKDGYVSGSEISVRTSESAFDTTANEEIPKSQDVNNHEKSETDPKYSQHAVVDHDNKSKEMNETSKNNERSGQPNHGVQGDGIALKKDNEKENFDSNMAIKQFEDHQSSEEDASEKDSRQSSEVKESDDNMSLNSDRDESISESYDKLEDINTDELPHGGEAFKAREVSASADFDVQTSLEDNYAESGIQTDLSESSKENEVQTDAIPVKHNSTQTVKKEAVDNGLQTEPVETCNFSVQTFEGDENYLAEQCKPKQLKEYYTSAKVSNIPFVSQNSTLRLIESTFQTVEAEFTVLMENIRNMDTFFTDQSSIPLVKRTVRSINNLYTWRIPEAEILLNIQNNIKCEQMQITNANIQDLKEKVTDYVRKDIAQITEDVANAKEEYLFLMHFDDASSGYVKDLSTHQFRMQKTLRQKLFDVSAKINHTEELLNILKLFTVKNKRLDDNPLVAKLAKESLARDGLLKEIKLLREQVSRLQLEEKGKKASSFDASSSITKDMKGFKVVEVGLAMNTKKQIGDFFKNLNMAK

Kd: 1800 nM
B1: Gle1 (natural protein, UniProt Q12315 1-538, looked up)
chain: MRFVFDEVFNSDTDSPEFEETCSTTSSTSSQCPTPEPSPAIKLPSFTKVGTKKLVNESVVILDPALENALRDLNLQSKLIPINEPIVAASSIIVPHSTNMPLPRASHSSLLDNAKNSNATAPLLEAIEESFQRKMQNLVLANQKEIQSIRENKRRVEEQRKRKEEEERKRKEAEEKAKREQELLRQKKDEEERKRKEAEAKLAQQKQEEERKKIEEQNEKERQLKKEHEAKLLQQKDKLGKAVTNFDKISKMFWHYKDKIAQIKQDIVLPIKKADVNVRNLLSRHKRKINPKFGQLTNSNQQLFKIQNELTQLINDTKGDSLAYHWILNFIAKAVVHQAETEVRVKPESALPLGKLTLYLLVQFPELQELFMARLVKKCPFVIGFTCEIDTEKGRQNMGWKRNNENKWEDNTSYDERMGGILSLFAIITRLQLPQEFITTTSHPFPIALSWHILARICNTPLNLITNTHFVILGSWWDAAAVQFLQAYGNQASKLLILIGEELTSRMAEKKYVGAARLRILLEAWQNNNMESFPEMSP
